Data from PMC6333426.

Target: Tsx nucleoside transporter of E. coli, on target cells (E. coli) (UniProt P0A927)
Test: flow cytometry on cells

UniProt P0A927, sequence (P0A927 23-294): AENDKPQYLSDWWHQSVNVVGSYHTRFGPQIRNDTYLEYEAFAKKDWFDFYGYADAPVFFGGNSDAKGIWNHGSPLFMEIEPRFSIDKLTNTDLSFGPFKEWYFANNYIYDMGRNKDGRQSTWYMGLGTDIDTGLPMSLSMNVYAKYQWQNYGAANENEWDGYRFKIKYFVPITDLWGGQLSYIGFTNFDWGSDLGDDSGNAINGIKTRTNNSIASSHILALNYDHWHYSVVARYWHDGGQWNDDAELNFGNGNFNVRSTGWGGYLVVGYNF

Substance: CdiA^STECO31 (CdiA from Escherichia coli STEC_O31), wild type, A0A1S4NYE3 33-3253
- percent of target cells bound: 80%
